The values that follow come from patent US20180057604A1.

In test [1] the target is human TfR extracellular domain with N-terminal His tag (human) (UniProt P02786). In words: SPR, bispecific antibody. A general note: SPR reads the build-up and loss of mass on a sensor chip optically.
Test [2] has as its target cyno TfR extracellular domain (analogous construct to human TfR ecd) (cynomolgus monkey). The test can be described thus: SPR, bispecific antibody.

Sequence of human TfR extracellular domain with N-terminal His tag (human) (P02786 89-760 G142S): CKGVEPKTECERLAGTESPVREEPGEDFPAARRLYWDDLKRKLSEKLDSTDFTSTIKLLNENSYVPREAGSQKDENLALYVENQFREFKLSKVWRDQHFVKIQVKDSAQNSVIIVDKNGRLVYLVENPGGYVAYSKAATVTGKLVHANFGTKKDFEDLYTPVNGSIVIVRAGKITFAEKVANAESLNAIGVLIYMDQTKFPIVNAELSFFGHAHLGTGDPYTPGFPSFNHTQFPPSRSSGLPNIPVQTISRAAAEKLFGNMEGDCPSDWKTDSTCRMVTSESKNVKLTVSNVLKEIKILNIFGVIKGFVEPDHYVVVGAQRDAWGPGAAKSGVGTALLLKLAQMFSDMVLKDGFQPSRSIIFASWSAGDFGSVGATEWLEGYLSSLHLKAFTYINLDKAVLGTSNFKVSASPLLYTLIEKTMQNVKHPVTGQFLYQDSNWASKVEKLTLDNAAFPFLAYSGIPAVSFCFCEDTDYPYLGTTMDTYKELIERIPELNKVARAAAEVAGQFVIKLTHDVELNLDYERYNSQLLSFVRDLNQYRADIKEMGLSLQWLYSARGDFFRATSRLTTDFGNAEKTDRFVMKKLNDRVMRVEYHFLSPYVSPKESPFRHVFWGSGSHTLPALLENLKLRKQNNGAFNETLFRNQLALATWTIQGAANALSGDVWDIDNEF
Sequence of cyno TfR extracellular domain (analogous construct to human TfR ecd) (cynomolgus monkey) (Q5RDH6 other isoform, or with tags, fused parts or gaps): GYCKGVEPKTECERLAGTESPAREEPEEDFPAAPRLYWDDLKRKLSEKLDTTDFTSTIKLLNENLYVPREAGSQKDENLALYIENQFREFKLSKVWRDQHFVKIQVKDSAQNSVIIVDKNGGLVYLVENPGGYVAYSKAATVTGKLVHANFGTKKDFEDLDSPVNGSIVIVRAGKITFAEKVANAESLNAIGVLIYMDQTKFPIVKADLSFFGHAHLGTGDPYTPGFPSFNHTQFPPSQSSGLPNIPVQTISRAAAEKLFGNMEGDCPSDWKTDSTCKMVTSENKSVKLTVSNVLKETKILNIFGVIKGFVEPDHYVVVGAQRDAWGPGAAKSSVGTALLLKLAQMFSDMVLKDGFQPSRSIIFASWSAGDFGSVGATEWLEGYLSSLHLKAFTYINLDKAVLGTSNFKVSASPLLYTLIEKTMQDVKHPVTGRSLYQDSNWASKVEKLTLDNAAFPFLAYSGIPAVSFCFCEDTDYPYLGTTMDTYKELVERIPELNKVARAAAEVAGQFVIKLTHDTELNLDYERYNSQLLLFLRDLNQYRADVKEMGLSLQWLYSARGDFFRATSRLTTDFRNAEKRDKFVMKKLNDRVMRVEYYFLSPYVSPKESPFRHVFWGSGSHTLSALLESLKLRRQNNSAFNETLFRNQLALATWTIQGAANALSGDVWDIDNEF

B1: anti-TfR^53A/BACE1 bispecific antibody (15G11.T53A arm) (bispecific antibody, part only; not given: anti-BACE1 arm and constant regions, V domains shown, not shown: another chain or arm of the molecule; a dimerising Fc or GST; small tags and cut ends)
VH: EVQLVQSGAEVKKPGASVKVSCKASGYTFTSYWMHWVRQAPGQRLEWIGEINPANGRTNYIEKFKSRATLTVDKSASTAYMELSSLRSEDTAVYYCARGTRAYHYWGQGTMVTVSS
VL: DIQMTQSPSSLSASVGDRVTITCRASDNLYSNLAWYQQKPGKSPKLLVYDATNLADGVPSRFSGSGSGTDYTLTISSLQPEDFATYYCQHFWGTPLTFGQGTKVEIK
For B1, the figures for the equilibrium dissociation constant (Kd) in test [1] and in test [2] were 24 nM and 143 nM, respectively.

By Kd is commonly meant the concentration at which binding is half-saturated. Low values mean a tighter complex, high ones a looser complex.
